From patent publication US6040149A, “Assay for identifying agents which act on the ceramide-activated protein kinase, kinase suppressor of ras, and methods of using said agents” (priority 1997, dated 2000)
Like-named read-outs stand apart in the source and are kept apart here.

Experiments:
[1] = system: ceramide-activated protein kinase; settings: for membrane-bound kinase activity, fold increase: TNF-α 30 nM
KSR = biological target: T1, KSR (Mus musculus, UniProt Q61097); assay: KSR activity toward Raf-1 peptides in vitro; format: biochemical, mouse (KSR immunoprecipitated from COS-7 cells); parameters: Raf-1 peptides as substrate
T1 sequence (Q61097 1-873): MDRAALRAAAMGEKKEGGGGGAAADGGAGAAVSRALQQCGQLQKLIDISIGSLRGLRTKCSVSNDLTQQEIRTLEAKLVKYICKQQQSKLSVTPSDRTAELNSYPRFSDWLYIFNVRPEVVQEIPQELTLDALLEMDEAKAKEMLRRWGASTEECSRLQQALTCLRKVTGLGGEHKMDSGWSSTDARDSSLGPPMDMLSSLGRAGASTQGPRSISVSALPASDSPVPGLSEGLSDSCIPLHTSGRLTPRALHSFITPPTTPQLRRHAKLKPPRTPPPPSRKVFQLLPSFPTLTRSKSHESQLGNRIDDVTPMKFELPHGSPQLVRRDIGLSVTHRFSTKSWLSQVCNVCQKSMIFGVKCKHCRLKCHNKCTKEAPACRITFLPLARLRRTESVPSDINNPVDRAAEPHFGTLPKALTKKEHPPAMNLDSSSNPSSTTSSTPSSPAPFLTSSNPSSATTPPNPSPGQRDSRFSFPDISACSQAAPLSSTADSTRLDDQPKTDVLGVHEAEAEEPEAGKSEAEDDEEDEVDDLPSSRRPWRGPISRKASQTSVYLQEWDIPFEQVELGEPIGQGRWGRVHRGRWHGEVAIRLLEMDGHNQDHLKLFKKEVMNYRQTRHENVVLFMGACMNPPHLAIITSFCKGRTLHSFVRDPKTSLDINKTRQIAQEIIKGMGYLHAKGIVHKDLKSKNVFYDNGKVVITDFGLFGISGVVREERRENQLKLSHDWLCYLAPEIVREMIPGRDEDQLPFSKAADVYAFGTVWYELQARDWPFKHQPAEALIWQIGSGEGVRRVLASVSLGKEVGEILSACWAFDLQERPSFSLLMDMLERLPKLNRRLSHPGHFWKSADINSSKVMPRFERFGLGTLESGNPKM
Summary of the method: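 Flag-tagged KSR immunoprecipitated from COS-7 lysate, incubated with 0.3 mM Raf-1 TTLP peptide, 10 mM MnCl2, 5 μM ATP plus [γ-32P]ATP at 22 °C, with 30 nM ceramide or other lipids; P81 filter binding and Cerenkov counting, AALP-peptide background subtracted.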

Raf-1 = assay: Kinase activity of immunoprecipitated Raf-1 toward MEK1 after HL-60 cell stimulation; format: cell-based, human (HL-60 cells)
Protocol: Recovery of MEK1 was monitored by western blot (Bottom Panel). Identical results were obtained with cells stimulated for 5 min with TNF.
Recovery of MEK1 was monitored by western blot (Bottom Panel).
These studies indicate that Raf-1 is a component of the sphingomyelin pathway mediating TNF action.
MEK1 autophosphorylation was for 45 min. An autoradiogram of MEK1 phosphorylation (top panel) and recovery of MEK1 protein by western blot (bottom panel) are shown. For western blot, proteins separated by SDS-PAGE were electrotransferred to an Immobilon PVDF membrane at 12 volts overnight at 4° C. Membranes were then blocked with 2% BSA in TBS [20 mM Tris, pH 7.6, 137 mM NaCl] for 1 hr and washed with TBST (TBS containing 0.2% Tween-20).

CCCCCCCCCCCCC/C=C/[C@@H](O)[C@@H](N)CO [sphingosine]
effect on kinase activity in membranes of stimulated HL-60 cells ([1]; cholera toxin 10 nM, retinoic acid 0.5 μM, butyrate 0.5 mM): similarly as effective as C8-cer
activation of KSR (KSR): fail to activate KSR

CCCCCCCCCCCCCC(=O)O[C@@H]1[C@@H](C)[C@@]2(O)[C@@H](C=C(CO)C[C@]3(O)C(=O)C(C)=C[C@@H]23)[C@@H]2C(C)(C)[C@]12OC(C)=O [TPA, 12-0-tetradecanoylphorbol-13-acetate]
increase of Raf-1 activity (Raf-1; TPA 100 ng/ml, 10 min, maximum): 4 fold of control
effect on activation of KSR towards Raf-peptide (KSR; 30 nM): no effect

TNF-α
kinase activity of Raf-1 toward MEK1 (Raf-1; HL-60 cells treated with TNF or ceramide analogs): 10-20 fold
kinase activity, fold of control ([1]; 3 pM TNF-α, 60 minutes): 1.1 fold of control
maximal kinase activity, fold of control ([1]; 30 nM TNF-α, 60 minutes): 1.8 fold of control
ED50 for kinase activity ([1]; 60 minutes of stimulation): ≈ 200 pM
membrane-bound kinase activity, fold increase ([1]; 5 minutes): 1.5 fold
membrane-bound kinase activity, fold increase ([1]; 2 hours): 2.2 fold
membrane-bound kinase activity, fold increase ([1]; 2 hours, listed as TNF): 2 fold
